Positions count from the first letter of the chain named.
B1: 29H1: murine monoclonal anti-PDGF-C antibody, IgG1 κ; VL SEQ ID NO:17, VH SEQ ID NO:21 (antibody, listed as Mus musculus, V domains shown)
VH: EVQLVESGGDLVKPGGSLKLSCAASGFTFSNYGMSWVRQTPDKRLEWVATIGSGGHYTYYPDSVKGRFTISRDSAKSTLYLQMSSLRSDDTAIYYCARQAPLWDCSDYWGQGTTLTVSS
VL: DVLMTQTPLSLPVSLGDQASISCRSNQSIVHSNGDTYLEWYLQKPGQSPNLLIYKVSNRFSGVPDRFSGSGSGTDFTLKISRVEAEDLGVYYCFQGSHVPPTFGGGTKLEIK
B2: 2D3: murine monoclonal anti-PDGF-C antibody, IgG1 κ; VL SEQ ID NO:14, VH SEQ ID NO:18 (antibody, listed as Mus musculus, V domains shown)
VH: B1 VH with H56S, S77N, R87K, D89E, I93M, C105Y
VL: B1 VL with S28T
B3: 5H7: murine monoclonal anti-PDGF-C antibody, IgG1 κ; VL SEQ ID NO:16, VH SEQ ID NO:20 (antibody, listed as Mus musculus, V domains shown)
VH: EVQLVESGGDLVKPGGSLKLSCAASGFTFSSYGMSWVRQTPDKRLEWVATIGYGGSFTYYPDSMKGRFTISRDNAKNTLFLQMSSLKSEDTAIYYCVRQAPLWDYFDYWGQGTTLTVSS
VL: B1 VL with N26S, S28T, N33D, D35T, P45A, N50K
B4: 5A2: murine monoclonal anti-PDGF-C antibody, IgG2b κ; VL SEQ ID NO:15, VH SEQ ID NO:19 (antibody, listed as Mus musculus, V domains shown)
VH: B1 VH with R87K, D89E
VL: B1 VL with N50K
B5: 16B1: murine monoclonal anti-PDGF-C antibody, IgG1 κ; VL SEQ ID NO:15, VH SEQ ID NO:18 (antibody, listed as Mus musculus, V domains shown)
VH: B1 VH with H56S, S77N, R87K, D89E, I93M, C105Y
VL: B1 VL with N50K
B6: Humanized mAb 5H7: humanized 5H7; VH SEQ ID NO:102, VL SEQ ID NO:103 (antibody, V domains shown)
VH: EVQLLESGGGLVQPGGSLRLSCAASGFTFSSYGMSWVRQTPGKGLEWVATIGYGGSFTYYPDSMKGRFTISRDNAKNTLYLQMNSLRAEDTAVYYCARQAPLWDYFDYWGQGTLLTVSS
VL: DVVMTQSPLSLPVTLGQPASISCRSSQTIVHSDGTTYLEWYLQKPGQSPRLLIYKVSNRFSGVPDRFSGSGSGTDFTLKISRVEAEDVGVYYCFQGSHVPPTFGQGTKLEIK
modifications: humanized variable heavy chain murine monoclonal antibody 5H7; humanized variable light chain murine monoclonal antibody 5H7

Experiments:
[1] = molecular target: T1, PDGFRα activation by human PDGF-C (Homo sapiens, UniProt Q9NRA1); test: PathHunter PDGFRα receptor tyrosine kinase assay in U2OS PDGFRα PLCG1 cells; format: cell-based; conditions: for IC50: PDGF-C at EC80
T1 construct: the growth factor domain of PDGF-C (amino acids 235-345 of human PDGF-C); purchased R&D Systems 1687-CC/CF; host or cells: ligand added to U2OS PDGFRα PLCG1 cells (DiscoveRx, assay 93-0823C3) that express the transfected receptor
Text: To evaluate the inhibitory activity of anti-human PDGF-C antibodies on PDGFRα activation by human PDGF-C, the PathHunter® receptor tyrosine kinase assay for PDGFRα (93-0823C3) from DiscoveRx® was used. […] A small complementing fragment of β-gal, the Prolink™ tag (PK) has been fused recombinantly to the intracellular C-terminus of the receptor tyrosine kinase PDGFRα. The larger portion of β-gal, termed EA for enzyme acceptor, is co-expressed with an SH2 (Src Homology 2) phosphotyrosine binding domain. Ligand-induced activation of the receptor results in dimerization and intra-cellular cross-phosphorylation of the receptor. Subsequently, the SH2 domain specifically binds the phosphorylated receptor resulting in the complementation of the two β-gal fragments PK and EA, and formation of a functional β-gal enzyme. Following addition of a β-gal substrate, an easily detectable chemiluminescent signal is produced which is directly correlated to receptor activation. The LumiLITE™ microplate reader is fully compatible with all EFC-based assays of DiscoveRx® and is therefore used.
For the PathHunter® PDGFRα, assay, U2OS PDGFRα, PLCG1 (phospholipase Cγ as the source of the SH2 domain) cells from DiscoveRx® were used. Frozen cells were stored in liquid nitrogen. Upon thawing, cells were resuspended in pre-warmed thawing medium (i.e. culture medium without the selection antibiotics Geneticin and Hygromycin B). After 48 hours of culture in a 5% CO2 incubator at 37° C., thawing medium was replaced by culture medium (MEM Eagle 1× (30-2003 from Invitrogen), 10% fetal bovine serum (SH30071.03 from Perbio Science), 1× Penicillin-Streptomycin-Glutamine (10378-016 from Invitrogen), 250 μg/ml Hygromycin B (10687-010 from Invitrogen), 500 μg/ml Geneticin (10131-035 from Invitrogen)). Once confluence was reached, cells were passaged with a ⅓ dilution every 2-3 days using Accutase (L11-007 from PAA). Cells were maintained in a non-confluent state during routine culture.
In the PathHunter® PDGFRα, assay, the U2OS PDGFRα, PLCG1 cells from DiscoveRx® cultured up to 10 passages were used. Cells were seeded at 20.000 cells in 100 μl per well in 96-well white culture-treated microplates with clear bottom (3610 from Corning). The PathHunter® Cell Plating 16 Reagent (93-0563R16 from DiscoveRx®) was employed as seeding medium. Following 24 hours of culture in 5% CO2 at 37° C., 25 μl of a 5-fold concentrated agonist solution in Cell Plating 16 Reagent was used per well to stimulate the cells. Recombinant human PDGF-C from R&D Systems (1687-CC/CF; Va1235-Gly345) was applied as agonist. After 3 hours incubation at room temperature, 60 μl of PathHunter® detection reagent (93-0001 from DiscoveRx®; 1 part Galacton Star® Substrate, 5 parts Emerald II™ Solution, and 19 parts of PathHunter® Cell Assay Buffer) was added. Cells were placed at room temperature and in the dark for another hour before luminescence was measured with the LumiLITE™ microplate reader. With GraphPad Prism® software, a non-linear regression analysis was performed using the obtained luminescent values in order to generate a sigmoidal agonist dose-response curve with variable slope. The EC50 (i.e. half maximal effective concentration) and EC80 value (i.e. the effective concentration that leads to 80% of the maximal response) for human PDGF-C was calculated.
To evaluate the inhibitory activity of anti-human PDGF-C antibodies on PDGFRα, activation by human PDGF-C, equal volumes of […] concentrated solutions of anti-human PDGF-C antibodies and the EC80 of human PDGF-C, prepared in Cell Plating 16 Reagent, were mixed and the assay was performed as described above. As positive controls, an anti-human PDGF-C polyclonal goat IgG antibody (AF1560 from R&D Systems) and recombinant human PDGFRα, Fc chimera (6765-PR from R&D Systems) were employed. […]

[2] = molecular target: T2, 15-mer, overlapping peptides covering the entire human PDGF-C molecule (Homo sapiens, UniProt Q9NRA1); test: Epitope mapping ELISA on 15-mer overlapping peptides; format: binding; conditions: peptide coated 10 μg/mL, antibody 1 μg/mL
T2 construct: host or cells: chemical synthesis
Description: The binding of anti-PDGF-C antibodies to 15-mer, overlapping peptides covering the entire human PDGF-C molecule was assessed by ELISA. Antibodies included in this analysis are the five antibodies potently inhibiting activation of PDGF-Rα by PDGF-C, i.e. monoclonal antibodies 2D3, 5A2, 5H7, 16B1 and 29H1. Further included are two antibodies capable of binding to PDGF-C, but not or very poorly inhibiting activation of PDGF-Rα by PDGF-C, i.e. monoclonal antibodies 12E5 (IgG1) and 19F12 (IgG2b) (see Example 4). […] For all antibodies, it was confirmed that they bind to human PDGF-C and binding to full-length human PDGF-C was for all antibodies tested more efficient than binding to any of the peptides identified as described hereafter.
The indicated peptides where synthesized in an N-terminally biotinylated form and coated onto a neutravidin plate (Thermo Scientific, Cat. 15127) at a concentration of 10 μg/mL. The antibodies listed in the table were incubated in each well at a concentration of 1 μg/mL and, following washing, were then detected in a standard ELISA format using an appropriate, HRP-labeled secondary antibody (goat anti-mouse IgG-HRP for all antibodies except sc-80290, and goat anti-rat IgG-HRP for sc-80290). Each antibody was tested at least twice, and up to 4 times. A “+” in the table indicate that a signal to background >3 was found and confirmed at least once. The background signal was measured in the absence of peptide using both the primary and the secondary antibodies. Antibodies sc-80290 and MAB1560 were tested only against peptides 42-63 since this represents the fraction of the protein that was used as an immunogen.

[3] = test system: glioblastoma tumor, U118; test: Antitumor effect against U118 glioblastoma xenograft; format: in vivo; conditions: for tolerability / body weight loss: 20 mg/kg IP twice a week; for TGI (%) Day 53 / TGI (%) Day 56 / TGI (%) Day 60 / TGI (%) Day 63 / TGI (%) Day 67: 20 mg/kg IP twice a week from day 28; for TGI (%) Day 53: day 53 post-tumor implantation; for TGI (%) Day 56: day 56 post-tumor implantation; for TGI (%) Day 60: day 60 post-tumor implantation; for TGI (%) Day 63: day 63 post-tumor implantation; for TGI (%) Day 67: day 67 post-tumor implantation
Description: For the evaluation of anti-tumor activity of the antibodies, animals were weighed and tumors measured 2 times weekly using a caliper. Tumor weights were calculated using the formula mass (mg)=[length (mm)×width (mm)^2]/2. Antitumor activity evaluation was done at the single dose of 20 mg/kg. A dosage producing a 20% body weight loss (bwl) or 10% or more drug deaths, was considered an excessively toxic dosage. Animal body weights included the tumor weights. The primary efficacy end point is the tumor growth inhibition (% TGI). Changes in tumor volume for each treated (T) and control (C) are calculated for each tumor by subtracting the tumor volume on the day of first treatment (staging day) from the tumor volume on the specified observation day. The median ΔT is calculated for the treated group and the median ΔC is calculated for the control group. Then the ratio ΔT/ΔC is calculated and expressed as a percentage of TGI: ΔT=Tt−T0 ΔC=Ct−C0 % TGI=[1−(median(Tt−T0)/median(Ct−C0)]*100
The antitumor effect of 29H1, 5A2 and 16B1 was evaluated against a measurable glioblastoma tumor, U118, which express both PDGF-C and its receptor, PDGFRa, S.C. implanted in female SCID Beige mice. Control group was treated with PBS alone. The antibodies were administered by an intraperitoneal (IP) injection, and treatment started on day 28 post-tumor implantation and was performed twice a week.

[4] = peptide binds secondary antibody

T1 sequence (Q9NRA1 235-345): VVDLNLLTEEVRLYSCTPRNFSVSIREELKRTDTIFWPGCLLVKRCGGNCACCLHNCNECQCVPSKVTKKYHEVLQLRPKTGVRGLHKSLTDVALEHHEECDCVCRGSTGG

Molecule	binding to peptide No 58 (SEQ ID NO: 96) VLQLRPKTGVRGLHK [2]	tolerability / body weight loss [3]	TGI (%) Day 53 [3] [%]	TGI (%) Day 56 [3] [%]	TGI (%) Day 60 [3] [%]	TGI (%) Day 63 [3] [%]	TGI (%) Day 67 [3] [%]	also measured
B1	+ (A “+” in the table indicate that a signal to background >3 was found and confirmed at least once)	well-tolerated with no tumor body weight loss	39.4	53.0	53.8	42.8	50.0	IC50 ([1]; Table 5 first IC50 column, * average of 3 measurements): 3450 pM; IC50 ([1]; Table 5 second IC50 column (separate experiment)): 870 pM; IC50 ([1]; Table 5 third IC50 column (separate experiment)): 240 pM
B2	+ (A “+” in the table indicate that a signal to background >3 was found and confirmed at least once)	–	–	–	–	–	–	–
B3	+ (A “+” in the table indicate that a signal to background >3 was found and confirmed at least once)	–	–	–	–	–	–	–
B4	+ (A “+” in the table indicate that a signal to background >3 was found and confirmed at least once)	well-tolerated with no tumor body weight loss	55.7	58.5	38.5	43.4	42.0	binding to peptide No 9 (SEQ ID NO: 47) FPHTYPRNTVLVWRL [2, 4]: + (A “+” in the table indicate that a signal to background >3 was found and confirmed at least once); binding to peptide No 27 (SEQ ID NO: 65) EPGFCIHYNIVMPQF [2, 4]: + (A “+” in the table indicate that a signal to background >3 was found and confirmed at least once)
B5	–	–	8.25	–	27.6	11.5	11.9	tumor growth block (in words) ([3]; ip, at the different time points evaluated): failed to block tumor growth
B6	–	–	–	–	–	–	–	inhibition of the PDGFRα activation by human PDGF-C (in words) [1]: apparently not inhibiting activation of PDGFR-α; IC50 value (nM) ([1]; humanized antibodies, * average of 3 measurements): nad
